Tests used:
[1] = target: Brachypodium distachyon cinnamyl alcohol dehydrogenase 5 (BdCAD5), recombinant 6xHis-tagged (Brachypodium distachyon); test: SEC
purified protein [2] = substrate: COc1cc(/C=C/CO)ccc1O; test: purified protein; conditions: co-substrate NADP+, 100 mM TRIS-HCl pH 8.8, 23 °C, n = 1
purified protein [3] = substrate: COc1cc(/C=C/C=O)ccc1O; test: purified protein; conditions: co-substrate NADPH
[4] = 200 mM potassium phosphate pH 6.25, 23 °C
[5] = 100 mM sodium acetate pH 5.35, 23 °C

In the case of “Brachypodium distachyon cinnamyl alcohol dehydrogenase 5 (BdCAD5), recombinant 6xHis-tagged (enzyme)”, the percent of peak area at the dimer position [1] is reported as 24% and the stoichiometry N [1] is reported as 2.

B1: BdCAD5 (Brachypodium distachyon) (protein)
chain: MGSIASEERTVTGWAARDADGHLSPYTYTLRKTGPEDVLVKVLYCGICHTDIHQAKNHLGASKYPMVPGHEVVGEVVEVGGEVSKYSAGDVVGVGVIVGCCRECRPCKASVEQYCNKRIWSYNDVYTDGRPTQGGFSSAMVVDQKFVVRIPAGLAPEQAAPLLCAGVTVYSPLKHFGLMSPGLRGGILGLGGVGHMGVKVAKSMGHHVTVISSSGKKRAEAMDDLGADAYLVSSDADQMAAAADSLDYVIDTVPVKHPLEPYLSLLKMDGKLVLMGVIGEPLSFVSPMVMLGRKSITGSFIGSMEETEEVLKFCVEKGLTSQIEVVKMDYLNEALERLERNDVRYRFVVDVAGSKIEDAA
B1 showed a Km (purified protein [2]) of 1.44 ± 0.24 µM, a Vmax (purified protein [2]) of 7.91 µmol/min/mg and a kcat (purified protein [2]) of 10.3 s⁻¹. It also gave a kcat/Km (purified protein [2]) of 7.19e+06 M⁻¹ s⁻¹, a Km (purified protein [3]; [4]) of 3.1 ± 0.44 µM and a Vmax (purified protein [3]; [4]) of 29.5 µmol/min/mg. It also gave a kcat (purified protein [3]; [4]) of 38.6 s⁻¹ and a kcat/Km (purified protein [3]; [4]) of 1.29e+07 M⁻¹ s⁻¹.

B2: BdCAD3 (Brachypodium distachyon) (protein)
chain: MEQGKAALGWAARDASGHLSPYNFSRRVQKDDDVTIKVLFCGICHTDLHIIKNEWGNALYPIVPGHEVVGVVTDVGPGVKNFKAGETVGVGYFLDSCRTCDSCSKGHENYCPTLVLTSNGVDYDGATTQGGFSDVVVVNQDYVVRVPDTLPPDGAAPLLCAGVTVYSPMMQYGLNAPGKHLGVVGLGGLGHMAVKFGKAFGMKVTVISSSLRKREEALDRLGADDFLVSSDAEQMKAAAGAMDGIIDTVSAGHPIVPLLELLRPMGQMVVCGAPSEPLQLPAYAVITGGKRIAGNGVGSVRDCQAMLDFAGEHGITADVEVVKMDYVNTAVERLERNDVRYRFVIDVAGSLQQGGAA
Work on B2 yielded a Km (purified protein [2]) of 509.1 ± 134.0 µM, a Vmax (purified protein [2]) of 36.7 µmol/min/mg and a kcat (purified protein [2]) of 34.3 s⁻¹. It also gave a kcat/Km (purified protein [2]) of 67000 M⁻¹ s⁻¹, a Km (purified protein [3]; [5]) of 33.3 ± 3.80 µM and a Vmax (purified protein [3]; [5]) of 9.26 µmol/min/mg. It also gave a kcat (purified protein [3]; [5]) of 8.66 s⁻¹ and a kcat/Km (purified protein [3]; [5]) of 260000 M⁻¹ s⁻¹.
